{"source": "patent US20260242495A1", "about": "(PROMETHEUS BIOSCIENCES, published 2026)", "binders": {"B1": {"name": "anti-TL1A antibody A219 (antibody, V domains shown)", "VH": "QVQLVQSGAEVKKPGASVKVSCKASGFDIQDTYMHWVKQRPGQGLEWMGRIDPASGHTKYDPKFQVRVTITRDTSTSTVYLELSSLRSEDTAVYYCARSGGLPDVWGQGTTVTVSS", "VL": "EIVLTQSPGTLSLSPGERATLSCRASSSVSYMYWYQQKPGQAPRPLIYATSNLASGIPDRFSGSGSGTDFTLTISRLEPEDFAVYYCQQWEGNPRTFGGGTKLEIK"}}, "biological_target": "T1, cynomolgus monkey TL1A (cynomolgus monkey, UniProt G7PRK8 72-251)", "T1 sequence": "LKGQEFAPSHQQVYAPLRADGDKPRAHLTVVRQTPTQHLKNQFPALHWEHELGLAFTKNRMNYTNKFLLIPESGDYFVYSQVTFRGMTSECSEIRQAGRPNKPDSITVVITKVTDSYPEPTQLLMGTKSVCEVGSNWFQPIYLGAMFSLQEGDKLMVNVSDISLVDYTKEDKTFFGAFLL", "assay": "cell-based or functional assay", "note": "“And” between values parts separate entries of the source, which are not always exact repeats. Equal values may be shown once.", "data": [{"binder": "B1", "values": [{"measurement": "IC50 of inhibition of IFN-γ release in monkey whole blood stimulated with immune complex, IL-12 and IL-18", "result": "1.54 nM and 289 ng/mL"}]}]}
